We go through six molecules from PMC7643160, “An ambruticin-sensing complex modulates Myxococcus xanthus development and mediates myxobacterial interspecies communication” (Nature Communications, 2020).

The Kd is the equilibrium constant for the complex coming apart. A higher Kd goes with a looser complex.

Data set [1] concerns MrpC (Myxococcus xanthus DK1622). The data set is described as follows: EMSA. The settings on record: EMSA: 25 mM K-acetate, 8 mM MgSO4, 0.1 mM DTT, 15 mM Tris-HCl pH 7.3, 8% glycerol, 250 ng poly-dIdC, 200 fmol DNA, 15 ul, 30 C 30 min. Pull-down (purified): ….
The target of data set [2] is T1, AskC (hybrid histidine kinase, MXAN_6734) (Myxococcus xanthus, UniProt Q1CXM2).
T1 construct: C-terminally His6-tagged AskC
T1 sequence (Q1CXM2 1-671): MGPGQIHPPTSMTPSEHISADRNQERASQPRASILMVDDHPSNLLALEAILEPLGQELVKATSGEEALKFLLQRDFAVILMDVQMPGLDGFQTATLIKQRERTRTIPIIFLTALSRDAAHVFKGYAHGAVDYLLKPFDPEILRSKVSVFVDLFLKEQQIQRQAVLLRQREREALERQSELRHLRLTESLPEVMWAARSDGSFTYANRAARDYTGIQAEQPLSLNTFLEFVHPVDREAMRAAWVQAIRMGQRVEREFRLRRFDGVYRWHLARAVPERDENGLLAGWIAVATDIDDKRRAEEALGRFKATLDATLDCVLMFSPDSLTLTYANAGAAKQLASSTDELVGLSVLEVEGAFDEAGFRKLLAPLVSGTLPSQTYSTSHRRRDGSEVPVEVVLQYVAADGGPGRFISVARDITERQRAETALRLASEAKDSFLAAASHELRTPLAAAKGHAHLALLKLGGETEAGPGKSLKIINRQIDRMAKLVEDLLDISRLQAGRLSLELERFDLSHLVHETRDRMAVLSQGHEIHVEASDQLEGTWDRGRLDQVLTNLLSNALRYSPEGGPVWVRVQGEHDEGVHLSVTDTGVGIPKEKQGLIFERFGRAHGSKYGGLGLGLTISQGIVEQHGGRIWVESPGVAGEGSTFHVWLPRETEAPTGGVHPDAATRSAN
The data set is described as follows: MST and SPR with purified protein (KD […] by MST, […] by SPR; mean given). The class given is binding.

Data set [3] deals with AskA (ambruticin sensor kinase A, MXAN_0712), hybrid histidine kinase (Myxococcus xanthus). The data set is described as follows: MST + SPR; average of the KD values from MST and from SPR (mean KD of Table 1).
Data set [4] shares this target. Description: SPR; equilibrium analysis on Biacore X100; ligand amine-coupled to a CM5 chip (which partner is not told); analyte in KB1 running buffer, 0.001 to 1000 µM; 25 °C; 1:1 fit; triplicates. (In SPR one partner is held on a chip, and binding of the other changes the refractive index at the surface.)
Data set [5] has the same target. The data set is described as follows: MST; NT647-labelled C-terminally His6-tagged AskA, AskB or AskC titrated with serial 1:1 dilutions of non-labelled protein; buffer KB1 (500 mM NaCl, 25 mM HEPES, 0.2% Triton X100, pH 7.4); 25 °C; 40% LED power, 40% MST power; triplicates.
The target in data set [6] is AskB (ambruticin sensor kinase B, MXAN_6735), hybrid histidine kinase (Myxococcus xanthus). The data set is described as follows: MST + SPR; average of the KD values from MST and from SPR (mean KD of Table 1).
Data set [7] shares this target. Description: SPR; equilibrium analysis on Biacore X100; ligand amine-coupled to a CM5 chip (which partner is not told); analyte in KB1 running buffer, 0.001 to 1000 µM; 25 °C; 1:1 fit; triplicates.
Data set [8] shares this target. Description: MST; NT647-labelled C-terminally His6-tagged AskA, AskB or AskC titrated with serial 1:1 dilutions of non-labelled protein; buffer KB1 (500 mM NaCl, 25 mM HEPES, 0.2% Triton X100, pH 7.4); 25 °C; 40% LED power, 40% MST power; triplicates.
For data set [9], the target named is AskC (MXAN_6734), hybrid histidine kinase, C-terminally His6-tagged (Myxococcus xanthus). Description: MST + SPR; average of the KD values from MST and from SPR (mean KD of Table 1).
The target is the same in data set [10]. Description: SPR; equilibrium analysis on Biacore X100; ligand amine-coupled to a CM5 chip (which partner is not told); analyte in KB1 running buffer, 0.001 to 1000 µM; 25 °C; 1:1 fit; triplicates.
For data set [11] the target is unchanged. Description: MST; NT647-labelled C-terminally His6-tagged AskA, AskB or AskC titrated with serial 1:1 dilutions of non-labelled protein; buffer KB1 (500 mM NaCl, 25 mM HEPES, 0.2% Triton X100, pH 7.4); 25 °C; 40% LED power, 40% MST power; triplicates.

Sequence of AskA (ambruticin sensor kinase A, MXAN_0712), hybrid histidine kinase (Myxococcus xanthus) (main, as listed by the source): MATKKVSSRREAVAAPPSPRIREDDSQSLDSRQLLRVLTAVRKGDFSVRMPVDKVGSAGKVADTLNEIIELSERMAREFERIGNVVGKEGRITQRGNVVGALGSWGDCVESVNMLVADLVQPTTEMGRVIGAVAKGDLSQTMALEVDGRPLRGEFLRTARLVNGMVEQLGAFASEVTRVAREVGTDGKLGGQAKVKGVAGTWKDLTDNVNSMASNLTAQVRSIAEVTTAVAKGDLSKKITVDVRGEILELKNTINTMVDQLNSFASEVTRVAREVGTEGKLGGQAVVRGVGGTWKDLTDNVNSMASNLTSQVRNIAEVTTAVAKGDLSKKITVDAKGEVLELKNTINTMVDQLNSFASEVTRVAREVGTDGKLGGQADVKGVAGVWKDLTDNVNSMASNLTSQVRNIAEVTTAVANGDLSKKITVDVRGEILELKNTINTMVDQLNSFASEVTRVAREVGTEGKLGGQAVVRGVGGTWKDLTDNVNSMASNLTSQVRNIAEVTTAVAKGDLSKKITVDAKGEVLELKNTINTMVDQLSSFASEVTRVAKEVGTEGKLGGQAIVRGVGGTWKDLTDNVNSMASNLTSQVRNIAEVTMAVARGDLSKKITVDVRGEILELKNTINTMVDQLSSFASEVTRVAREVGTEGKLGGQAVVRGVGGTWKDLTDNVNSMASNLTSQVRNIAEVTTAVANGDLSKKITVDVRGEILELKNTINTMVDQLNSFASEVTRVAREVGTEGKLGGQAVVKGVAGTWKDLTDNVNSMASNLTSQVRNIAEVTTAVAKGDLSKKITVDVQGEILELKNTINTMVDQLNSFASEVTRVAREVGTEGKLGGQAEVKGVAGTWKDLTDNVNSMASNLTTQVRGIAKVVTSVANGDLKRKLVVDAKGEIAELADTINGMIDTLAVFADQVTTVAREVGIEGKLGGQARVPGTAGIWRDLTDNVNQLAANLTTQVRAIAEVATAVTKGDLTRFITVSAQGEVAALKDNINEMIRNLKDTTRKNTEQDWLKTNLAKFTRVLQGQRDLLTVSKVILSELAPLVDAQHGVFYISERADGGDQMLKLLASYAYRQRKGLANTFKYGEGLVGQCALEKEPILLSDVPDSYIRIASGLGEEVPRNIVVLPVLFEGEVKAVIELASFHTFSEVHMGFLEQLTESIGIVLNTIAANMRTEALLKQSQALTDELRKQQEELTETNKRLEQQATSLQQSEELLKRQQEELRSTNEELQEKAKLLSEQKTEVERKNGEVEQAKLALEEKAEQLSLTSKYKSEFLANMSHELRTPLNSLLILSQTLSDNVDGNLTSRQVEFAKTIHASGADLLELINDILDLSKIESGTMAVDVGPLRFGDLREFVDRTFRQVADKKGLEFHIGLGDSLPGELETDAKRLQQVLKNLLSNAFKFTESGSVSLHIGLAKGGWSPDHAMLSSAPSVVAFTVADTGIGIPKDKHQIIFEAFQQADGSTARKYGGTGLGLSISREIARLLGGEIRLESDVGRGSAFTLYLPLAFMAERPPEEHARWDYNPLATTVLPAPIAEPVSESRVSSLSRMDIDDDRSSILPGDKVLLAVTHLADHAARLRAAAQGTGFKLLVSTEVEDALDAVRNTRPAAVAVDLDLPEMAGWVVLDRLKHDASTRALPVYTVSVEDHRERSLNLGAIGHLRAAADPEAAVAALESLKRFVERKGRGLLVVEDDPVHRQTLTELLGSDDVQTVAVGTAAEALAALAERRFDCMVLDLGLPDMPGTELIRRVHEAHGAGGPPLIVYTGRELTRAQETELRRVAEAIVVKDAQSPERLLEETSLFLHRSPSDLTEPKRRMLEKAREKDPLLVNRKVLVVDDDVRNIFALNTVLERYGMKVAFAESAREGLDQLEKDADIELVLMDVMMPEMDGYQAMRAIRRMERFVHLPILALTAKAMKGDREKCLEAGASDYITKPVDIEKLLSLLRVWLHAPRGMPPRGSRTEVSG
Sequence of AskB (ambruticin sensor kinase B, MXAN_6735), hybrid histidine kinase (Myxococcus xanthus) (main, as listed by the source): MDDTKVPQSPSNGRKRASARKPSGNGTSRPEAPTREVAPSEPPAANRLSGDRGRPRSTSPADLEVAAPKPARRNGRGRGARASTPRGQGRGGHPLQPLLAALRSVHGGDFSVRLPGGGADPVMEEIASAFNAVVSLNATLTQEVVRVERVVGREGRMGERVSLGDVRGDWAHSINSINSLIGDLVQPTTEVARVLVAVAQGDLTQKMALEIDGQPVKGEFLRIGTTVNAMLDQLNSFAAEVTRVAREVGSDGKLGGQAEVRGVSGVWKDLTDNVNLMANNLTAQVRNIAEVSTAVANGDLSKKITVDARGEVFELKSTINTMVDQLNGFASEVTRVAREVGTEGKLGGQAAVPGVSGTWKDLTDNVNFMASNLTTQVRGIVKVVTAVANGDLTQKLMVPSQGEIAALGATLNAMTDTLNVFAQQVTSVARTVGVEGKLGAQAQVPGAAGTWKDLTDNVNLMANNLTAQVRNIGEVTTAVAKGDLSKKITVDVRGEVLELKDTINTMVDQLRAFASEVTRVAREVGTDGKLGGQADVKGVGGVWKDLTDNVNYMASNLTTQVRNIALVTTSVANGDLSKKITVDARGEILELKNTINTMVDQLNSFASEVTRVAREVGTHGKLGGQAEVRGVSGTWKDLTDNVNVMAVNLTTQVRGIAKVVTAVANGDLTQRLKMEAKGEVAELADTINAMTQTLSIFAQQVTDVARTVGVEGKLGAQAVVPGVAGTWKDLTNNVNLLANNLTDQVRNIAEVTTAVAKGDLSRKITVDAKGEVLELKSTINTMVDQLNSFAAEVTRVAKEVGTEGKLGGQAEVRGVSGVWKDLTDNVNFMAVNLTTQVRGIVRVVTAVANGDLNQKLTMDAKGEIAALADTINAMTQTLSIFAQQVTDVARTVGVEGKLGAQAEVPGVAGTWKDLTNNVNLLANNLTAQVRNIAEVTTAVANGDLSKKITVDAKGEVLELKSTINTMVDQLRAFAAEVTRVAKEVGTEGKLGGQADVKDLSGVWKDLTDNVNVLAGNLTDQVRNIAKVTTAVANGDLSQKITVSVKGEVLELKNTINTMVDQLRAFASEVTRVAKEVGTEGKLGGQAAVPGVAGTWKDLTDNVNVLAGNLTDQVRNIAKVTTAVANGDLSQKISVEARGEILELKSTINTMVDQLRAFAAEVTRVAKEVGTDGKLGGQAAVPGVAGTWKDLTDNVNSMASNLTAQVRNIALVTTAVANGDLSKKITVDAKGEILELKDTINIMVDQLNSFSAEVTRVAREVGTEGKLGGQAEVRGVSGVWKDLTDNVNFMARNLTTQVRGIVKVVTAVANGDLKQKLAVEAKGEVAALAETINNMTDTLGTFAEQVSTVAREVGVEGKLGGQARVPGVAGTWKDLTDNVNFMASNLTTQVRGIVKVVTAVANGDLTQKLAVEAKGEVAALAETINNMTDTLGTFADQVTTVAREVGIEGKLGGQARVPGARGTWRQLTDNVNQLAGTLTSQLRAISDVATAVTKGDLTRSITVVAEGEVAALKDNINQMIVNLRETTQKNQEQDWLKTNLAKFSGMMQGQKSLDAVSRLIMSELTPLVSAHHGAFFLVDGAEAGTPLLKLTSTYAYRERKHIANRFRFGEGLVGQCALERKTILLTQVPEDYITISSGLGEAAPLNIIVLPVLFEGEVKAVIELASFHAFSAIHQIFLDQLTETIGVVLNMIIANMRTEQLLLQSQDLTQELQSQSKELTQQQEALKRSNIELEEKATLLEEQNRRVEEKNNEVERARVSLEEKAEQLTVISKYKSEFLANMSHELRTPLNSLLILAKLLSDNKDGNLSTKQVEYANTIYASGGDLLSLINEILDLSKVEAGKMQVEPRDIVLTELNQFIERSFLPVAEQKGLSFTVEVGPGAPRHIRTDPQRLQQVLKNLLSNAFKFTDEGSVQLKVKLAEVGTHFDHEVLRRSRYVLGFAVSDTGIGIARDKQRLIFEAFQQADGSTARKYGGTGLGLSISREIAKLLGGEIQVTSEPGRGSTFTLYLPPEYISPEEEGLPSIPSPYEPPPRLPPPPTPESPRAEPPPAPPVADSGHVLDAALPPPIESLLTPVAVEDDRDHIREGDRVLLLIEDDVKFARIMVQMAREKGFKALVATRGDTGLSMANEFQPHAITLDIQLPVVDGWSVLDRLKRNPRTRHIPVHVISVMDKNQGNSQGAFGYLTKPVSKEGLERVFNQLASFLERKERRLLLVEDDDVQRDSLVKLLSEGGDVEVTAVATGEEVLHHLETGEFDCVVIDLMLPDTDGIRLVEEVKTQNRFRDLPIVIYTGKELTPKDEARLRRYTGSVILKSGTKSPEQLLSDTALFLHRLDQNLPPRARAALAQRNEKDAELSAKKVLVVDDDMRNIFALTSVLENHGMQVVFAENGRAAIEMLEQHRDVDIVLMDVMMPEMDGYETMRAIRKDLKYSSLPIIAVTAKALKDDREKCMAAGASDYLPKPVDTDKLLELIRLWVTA

Regarding HEX-PmrpC, the Kd in [1] was less than 5 nM.

Take `CCC1OC(/C(C)=C/C(C)/C=C/C2C(C)C2/C=C/C2OC(CC(=O)O)CC(N(C)C)C2O)CC=C1C` (centres unmarked) [ambVS3, ambruticin VS-3]: binding in [2] was characterised by a dissociation constant (Kd) of 300000 ± 200000 nM.

In the case of “AskB (ambruticin sensor kinase B, MXAN_6735), hybrid histidine kinase (enzyme)”, the mean KD in data set [3] amounted to 2800 nM. For the same molecule, the results for the Kd in [4] and in [5] were 3000 nM and 2300 nM, respectively.

For “AskC (MXAN_6734), hybrid histidine kinase, C-terminally His6-tagged (enzyme)”, the mean KD in [3] was 2800 nM; in data set [6] it was 700 nM. Further, the Kd in data set [4] was determined as 1400 nM; in data set [7] it was 400 nM; in [5], 4100 nM; in data set [8] it was 900 nM.

B1: FruA, transcriptional regulator of development (natural protein)
chain: MATNQAAIRVSILEGPWAAWQGLADGLRGEGVQVSSVTRDVRLFLDSLGTDPPQVAVMDVEGDSEAAVGCSVTEGINLLREARKRRLEVRMLLLSAVSTPEIISQCFDEGASGYLFRAGLGTTAVASAINSLVRGERLFPVQLLRNDFEHPPVTSPTASVLLALTQREREVLAYVAGGADNLKIAAHLQIAERTVKSHVTQLYRKLGAENRTQLALRACHLGVRPPPDL
For the molecule B1, the values for the mean KD in [3], in data set [6] and in data set [9] were 1000 nM, 1200 nM and 1400 nM, respectively. Also, the Kd in data set [4] amounted to 500 nM; in data set [7], 200 nM; in [10], 1500 nM; in data set [5], 1400 nM; in data set [8] it was 2100 nM; in data set [11] it was 1300 nM.

B2: MrpC, transcriptional regulator of development (natural protein)
chain: MHGFNRPLGPIGSNVVAPLQTTSSGMMVTANKLVPGQEAIDFKGYFKVESFPHNSTIYRPGDNTDRVYLLKSGRVRLMRIGKNSTRSVVSILRPGDLFGELFRPEGTPIEEMAIAAGEAEVWSIEGRDFRAQLEARPALAVDVVRAYAERVRALRKRVLGLTFKEVPARLADTLLTLVEAHGERCPHGGETDLRGITQQDLADLVGASRSFVSTLINEMKREGVLGNVGRILCVRDQKALRKIAGKEK
As to B2, the mean KD in [3] stood at 800 nM; in [6] it was 1200 nM; in data set [9], 1500 nM. The Kd in data set [4] was determined as 1000 nM; in data set [7], 300 nM; in [10], 1600 nM; in data set [5] it was 500 nM; in data set [8], 2100 nM; in data set [11], 1400 nM.
